Data: the RNAGym collection of RNA variant scans (doi:10.7554/elife.80360)

B1: HDV Ribozyme (parent)
chain: GGCCGGCAUGGUCCCAGCCUCCUCGCUGGCGCCGGCUGGGCAACAUUCCGAGGGGACCGUCCCCUCGGUAAUGGCGAAUGGGACCCA

Variants of: B1
Experiment: self-cleavage, relative activity (ratio to wild type); higher = more cleavage; co-transcriptional

Variant	self-cleavage
G35C U60C	0.237
C36G G54U	0.166
C36A A56G	0.145
G35U U46C	0.0415
C36A G73U	0.0583
C36A G73A	0.104
C36G G59A	0.169
C36G G40U	0.108
C36G G40A	0.157
C36G G40C	0.185
C36G C49G	0.0773
C36G C49U	0.0811
C36A U47G	0.208
C36A U47C	0.0519
G35U C84U	0.343
G35U C84G	0.185
G35U C49A	0.499
C36A C61U	0.138
C36A C61A	0.0536
C36U C66A	0.712
C36U C66U	0.741
C36A C58A	0.227
C36A C58G	0.119
C36A C58U	0.222

Variant	self-cleavage
C36U C44A	0.166
C36U C44U	0.197
G35U C58A	0.554
G35U C58U	0.249
G35C U65G	0.314
G35C U65A	0.233
G35C U65C	0.219
C36A A70C	0.128
C36A C66U	0.134
C36A C66G	0.177
C36G G81U	0.114
C36G G81A	0.0545
G35U U37C	0.428
G35U U37A	0.155
G35U U37G	0.095
C36U G53U	0.852
G35U C44G	0.0755
G35U C44A	0
C36A A87C	0.147
C36A A87U	0.0587
G35U G68A	0.351
C36A G74A	0
C36A G74C	0.0997
C36A G74U	0.14

Variant	self-cleavage
C36G C64A	0.259
C36U C58A	0.964
C36U C58U	0.866
C36G C57A	0.177
C36G C57G	0.162
C36U A51U	0.743
C36U A51C	0.665
C36A U79G	0.175
C36A U79A	0.0615
C36A G80A	0.12
C36U A77C	0.145
C36U A77G	0.475
C36U A77U	0.224
C36U C57A	0.816
G35U G50A	0.472
G35U G50U	0.426
G35U G50C	0.443
C36G C62G	0.142
C36U C86U	0.712
C36A C48U	0.116
G35U U72G	0.151
C36U A45U	0.658
C36U A45C	0.0426
G35U C85U	0.623

Variant	self-cleavage
C36A G67A	0.126
C36A G67U	0.155
C36A G67C	0.208
C36G G39U	0.0652
G35U A71G	0.308
G35U A71U	0.178
G35U A71C	0.237
C36A G76U	0.119
C36G G38C	0.208
G35C U79C	0.132
G35C U79A	0.122
G35U C36A	0.0831
G35U C36U	0.101
C36G G50C	0.0437
C36G G50A	0.109
C36A G39U	0.0906
G35U C64A	0.351
G35U C64G	0.403
G35C U69G	0.277
G35C U69A	0.443
C36U G67C	0.831
C36U G54U	0.796
G35U G54U	0.448
C36U A56C	0.888

Variant	self-cleavage
C36G A78C	0.161
C36A A77C	0.259
C36A A77U	0.217
C36U G80U	0.224
C36U C62G	0.222
C36U C62U	0.911
C36U U69A	0.627
G35U	0.454
G35C G81A	0.0332
G35C G81C	0.19
C36A G53C	0.0277
C36A G53A	0.218
C36A G53U	0.19
C36U A83C	0.185
C36U A83G	0.56
C36U C41U	0.602
C36A C57A	0.297
C36A C57G	0.0898
C36U C64A	0.482
G35U A51U	0.471
C36G C48A	0.272
C36G C48U	0.231
G35U G67U	0.391
C36U A71C	0.408

Variant	self-cleavage
C36G	0.13
C36A	0.147
C36U	0.744
G35C U46C	0.185
C36G U60A	0.0405
C36G U60C	0.237
C36U G38C	0.113
C36U G38U	0.147
C36A G59A	0.164
G35U A87U	0.451
G35U U47A	0.332
G35U G55U	0.508
G35U G59C	0.7
G35U G59A	0.415
G35U C66U	0.459
C36U G74U	0.191
C36G A42C	0.0811
C36G A42G	0.147
C36G A42U	0.113
C36U G40U	0.602
C36U G40A	0.831
C36U G52C	0.779
C36U G52A	0.785
G35U G80C	0.0567

Variant	self-cleavage
G35U G80A	0.101
G35U C62A	0.261
G35U C62U	0.486
C36A U37A	0.0831
C36A U37G	0.256
C36A U37C	0.489
C36U A78C	0.173
C36U A78U	0.154
C36G A51U	0.0519
C36G A51C	0.0665
C36A A83U	0.0219
C36U A42U	0.208
C36U C75G	0.0959
C36A G38U	0.189
C36A G38A	0.0845
C36A G38C	0.0415
G35C U72A	0
G35C U72C	0.156
G35C U72G	0.346
G35U G53U	0.288
C36A A43U	0.198
C36A A43C	0.095
G35C G82C	0.0519
G35C G82U	0.0723

Variant	self-cleavage
C36A U60C	0.166
C36A U60A	0.198
C36A G82C	0.112
C36U C48U	0.746
C36A G81A	0.138
C36A G81C	0.102
C36A C75G	0.154
C36U U46C	0.481
C36G U46A	0.415
C36G C44G	0
C36U U60G	0.508
C36U U60C	0.959
C36U U60A	0.727
G35U A43G	0.185
G35U A43U	0.282
C36G C86A	0.181
C36G C86G	0.119
G35U U60C	0.317
G35U U60A	0.415
C36U C63A	0.534
C36U C63G	0.493
C36A G50A	0.151
C36A G50U	0.0923
C36A A71G	0.0405

Variant	self-cleavage
C36A A71C	0.0573
C36A A71U	0.309
C36U C49A	0.795
C36U G81A	0.24
C36A C62A	0.261
C36A C62U	0.175
C36A C85A	0.457
C36A C85G	0.18
C36G U72A	0.138
C36G U72C	0.0462
C36G U79C	0.154
C36G U79A	0.095
G35U A45G	0.365
G35U A70C	0.354
C36U A70G	0.969
C36U A70C	0.849
C36G C41G	0.151
G35U G39U	0.0941
G35U U79G	0.0426
G35U U79C	0.0992
C36G A83U	0.113
C36A G54C	0.241
G35U C57A	0.517
G35U C57U	0.538

Variant	self-cleavage
G35U C57G	0.415
C36G C84A	0.0773
C36G C84U	0.0755
C36G C84G	0.116
C36A C86U	0.17
C36A C86G	0.325
C36A C44G	0.125
G35U C48A	0.49
G35U C48G	0.312
G35U G38A	0.0702
C36G G52U	0.14
C36G A77G	0.0791
G35U G73U	0.19
C36G U47A	0.177
C36A C84A	0.192
C36A C41A	0.102
C36A C41U	0.171
C36A C41G	0.18
C36G A56U	0.111
C36G A56G	0.0594
C36G A56C	0.158
C36A U69C	0.0426
C36A U69A	0.0755
C36U C84U	0.716

Variant	self-cleavage
C36U C84G	0.324
C36U C84A	0.489
C36G C66G	0.237
C36U C85U	0.88
C36U C85G	0.799
C36U C85A	0.732
C36U A87U	0.769
C36U A87C	0.778
C36G U65A	0.244
C36U G76C	0.909
C36U G76U	1.05
C36G G82C	0.141
C36G C58G	0.0594
C36G C58U	0.128
C36G C58A	0.201
C36G A87G	0.138
C36G A87U	0.153
C36U G68A	0.626
C36U G68C	0.563
C36U U47G	0.665
C36U U47C	0.467
C36A G40C	0.102
C36A G40U	0.161
C36A G40A	0.234

Variant	self-cleavage
C36A U65A	0.163
C36A U65C	0.095
C36U G73C	0.161
C36A G52U	0.14
C36A G52A	0.158
C36A G52C	0.138
C36A C64A	0.0405
C36A C64G	0.0652
C36U G59U	0.806
C36U U65G	0.582
C36U U65A	0.665
C36U U65C	0.712
G35U A78G	0.0723
C36A A45G	0.256
C36A A45C	0
C36G G55U	0.032
C36G G55C	0.0314
C36A C63G	0.208
C36A C63U	0.177
C36A A78U	0
C36A A78C	0.155
C36A A78G	0.0652
G35U U69C	0.253
G35U U69G	0.302

Variant	self-cleavage
C36G A70C	0
C36A U46A	0.244
C36G G76C	0.0692
C36G G74A	0.0779
G35C U37A	0
G35C U37G	0.0504
C36U G82A	0.327
C36U G82U	0.234
C36U G82C	0.269
C36G G53U	0.148
C36G G53A	0.0959
G35U G76A	0.404
G35U G82C	0.161
G35U G82U	0.162
G35U A77U	0.175
C36U A43U	0.095
C36U A43C	0
G35U G52U	0.459
G35U G52A	0.483
G35U A56U	0.62
G35U A56G	0.393
G35U A56C	0.358
C36G C75A	0.151
C36G C75U	0.233

Variant	self-cleavage
C36G C75G	0.0773
C36A G55A	0.188
G35U G40C	0.136
G35U C75G	0.0378
G35U C75A	0.138
G35U C75U	0.095
C36U C61G	0.466
C36U C61U	0.726
C36U C61A	0.831
C36G G80U	0.0507
C36G G80C	0.108
C36G G80A	0.0382
C36A C49U	0.116
C36A C49A	0.0554
C36G A43C	0.166
C36G A43G	0.0519
C36G C63U	0.213
C36G G73U	0.0326
C36U U37C	0.867
C36A A42U	0.122
C36U G55C	0.789
G35U C63A	0.389
